Drawing on the supplement of paper PMC10567573, this text covers protein stability index for 94 variants.

The labels stand for the following.
B1: CDS2 (parent)
chain: IHSIALSTFASLIGPFGGFFASGF
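Also: lentivirally expressed fusions sorted by FACS into six bins by GFP to DsRed ratio, PSI derived from sequencing read proportions per bin multiplied by bin number.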

Variants of B1 are the subject of this data set. The data set is described as follows: protein stability index of a GFP-peptide fusion (GPS, HEK-293T) (PSI 1-6); higher = more stable. Particulars: c terminus: a fixed tail appended.
With IHSIALSTFASLIGPFGGFFVSGF [A21V], the protein stability index was found to be 2.06. Then IHSIALSTFASLIGPFGGFFPSGF [A21P], with 2.4; and IHSIALSTFASLIGPFGGFFQSGF [A21Q], with 3.25; and IHSIALSTFASLIGPFGGFFDSGF [A21D], with 4.2. With IHSIALSTFASLIGPFGGFFWSGF [A21W] the figure was 2.61; with IHSIALSTFASLIGPFGGFFHSGF [A21H], 4.77. With IHSIALSTFASLIGPFGGFFTSGF [A21T] the figure was 3.65.

For IHSIALSTFASLIGPFGGFFNSGF [A21N], the protein stability index was 2.8. Then IHSIALSTFASLIGPFGGFFRSGF [A21R], with 2.9.

Regarding IHSIALSTFASLIGPFGGFFCSGF [A21C], the protein stability index was found to be 3.33. With IHSIALSTFASLIGPFGGFFMSGF [A21M] the figure was 2.69. With IHSIALSTFASLIGPFGGFFYSGF [A21Y] the figure was 3.42; with IHSIALSTFASLIGPFGGFFLSGF [A21L], 2.75. With IHSIALSTFASLIGPFGGFFKSGF [A21K] the figure was 2.22. As to IHSIALSTFASLIGPFGGFFESGF [A21E], the protein stability index was 2.24. Then IHSIALSTFASLIGPFGGFFFSGF [A21F], with 2.83; and IHSIALSTFASLIGPFGGFFSSGF [A21S], with 2.54; and IHSIALSTFASLIGPFGGFFISGF [A21I], with 3. In the case of IHSIALSTFASLIGPFGGFFASIF [G23I], the protein stability index came out at 1.59. As to IHSIALSTFASLIGPFGGFFASKF [G23K], the protein stability index stood at 2.05. With IHSIALSTFASLIGPFGGFFASLF [G23L] the figure was 1.42. Then IHSIALSTFASLIGPFGGFFASFF [G23F], with 2.67; and IHSIALSTFASLIGPFGGFFASDF [G23D], with 2.37; and IHSIALSTFASLIGPFGGFFASMF [G23M], with 3.23. With IHSIALSTFASLIGPFGGFFASCF [G23C] the figure was 2.54; with IHSIALSTFASLIGPFGGFFASEF [G23E], 4.01. On to IHSIALSTFASLIGPFGGFFASHF [G23H], for which the protein stability index came to 2.2. In the case of IHSIALSTFASLIGPFGEFFASGF [G18E], the protein stability index was found to be 2.89. Then IHSIALSTFASLIGPFGSFFASGF [G18S], with 2.36; and IHSIALSTFASLIGPFGWFFASGF [G18W], with 2.32; and IHSIALSTFASLIGPFGRFFASGF [G18R], with 3.42.

As to IHSIALSTFASLIGPFGIFFASGF [G18I], the protein stability index is 3.04. As to IHSIALSTFASLIGPFGYFFASGF [G18Y], the protein stability index is 3.62. With IHSIALSTFASLIGPFGNFFASGF [G18N] the figure was 2.01.

For the variant IHSIALSTFASLIGPFGDFFASGF [G18D], the protein stability index was determined as 4.39.

With IHSIALSTFASLIGPFGTFFASGF [G18T], the protein stability index was 3.73. For IHSIALSTFASLIGPFGHFFASGF [G18H], the protein stability index came out at 2.38.

IHSIALSTFASLIGPFGKFFASGF [G18K]: the protein stability index amounted to 2.86. With IHSIALSTFASLIGPFGLFFASGF [G18L] the figure was 2.48.

IHSIALSTFASLIGPFGQFFASGF [G18Q]: the protein stability index is 3.3. With IHSIALSTFASLIGPFGMFFASGF [G18M] the figure was 3.05; with IHSIALSTFASLIGPFGFFFASGF [G18F], 3.59; with IHSIALSTFASLIGPFGPFFASGF [G18P], 2.83. With IHSIALSTFASLIGPFGVFFASGF [G18V] the figure was 3.83; with IHSIALSTFASLIGPFGGFFAEGF [S22E], 2.95; with IHSIALSTFASLIGPFGGFFAMGF [S22M], 3.08. Turning to IHSIALSTFASLIGPFGGFFACGF [S22C], the protein stability index was 2.86. With IHSIALSTFASLIGPFGGFFAIGF [S22I] the figure was 2.2. With IHSIALSTFASLIGPFGGFFARGF [S22R] the figure was 3.24; with IHSIALSTFASLIGPFGGFFALGF [S22L], 2.7.

For IHSIALSTFASLIGPFGGFFAWGF [S22W], the protein stability index is 2.44. With IHSIALSTFASLIGPFGGFFAHGF [S22H] the figure was 2.03; with IHSIALSTFASLIGPFGGFFATGF [S22T], 2.96. Consider IHSIALSTFASLIGPFGGFFAPGF [S22P], for which the protein stability index amounted to 3.67. Then IHSIALSTFASLIGPFGGFFAVGF [S22V], with 2.54; and IHSIALSTFASLIGPFGGFFANGF [S22N], with 2.57; and IHSIALSTFASLIGPFGGFFADGF [S22D], with 2.53. Then IHSIALSTFASLIGPFGGFFAKGF [S22K], with 1.71; and IHSIALSTFASLIGPFGGFFAQGF [S22Q], with 2.57. With IHSIALSTFASLIGPFGGFFAFGF [S22F] the figure was 3.51; with IHSIALSTFASLIGPFGGFFAGGF [S22G], 3.59. With IHSIALSTFASLIGPFGGRFASGF [F19R], the protein stability index is 2.72. With IHSIALSTFASLIGPFGGTFASGF [F19T] the figure was 3.17; with IHSIALSTFASLIGPFGGVFASGF [F19V], 2.86. Regarding IHSIALSTFASLIGPFGGNFASGF [F19N], the protein stability index worked out at 3.42. With IHSIALSTFASLIGPFGGDFASGF [F19D] the figure was 3.49. Then IHSIALSTFASLIGPFGGGFASGF [F19G], with 3.81; and IHSIALSTFASLIGPFGGLFASGF [F19L], with 3.19. Then IHSIALSTFASLIGPFGGWFASGF [F19W], with 3.48; and IHSIALSTFASLIGPFGGHFASGF [F19H], with 2.47; and IHSIALSTFASLIGPFGGCFASGF [F19C], with 2.63. Regarding IHSIALSTFASLIGPFGGQFASGF [F19Q], the protein stability index was 3.63. With IHSIALSTFASLIGPFGGIFASGF [F19I] the figure was 2.97; with IHSIALSTFASLIGPFGGSFASGF [F19S], 2.78. Then IHSIALSTFASLIGPFGGEFASGF [F19E], with 3.01; and IHSIALSTFASLIGPFGGYFASGF [F19Y], with 4.14. With IHSIALSTFASLIGPFGGAFASGF [F19A] the figure was 2.87; with IHSIALSTFASLIGPFGGKFASGF [F19K], 3.44; with IHSIALSTFASLIGPFGGPFASGF [F19P], 2.01. On to IHSIALSTFASLIGPFGGMFASGF [F19M], for which the protein stability index is 4.02. With IHSIALSTFASLIGPFGGFAASGF [F20A] the figure was 1.97. With IHSIALSTFASLIGPFGGFHASGF [F20H] the figure was 2.66; with IHSIALSTFASLIGPFGGFNASGF [F20N], 2.68. As for IHSIALSTFASLIGPFGGFRASGF [F20R], the protein stability index came out at 2.86.

With IHSIALSTFASLIGPFGGFYASGF [F20Y], the protein stability index was 1.92. With IHSIALSTFASLIGPFGGFIASGF [F20I] the figure was 2.13; with IHSIALSTFASLIGPFGGFSASGF [F20S], 2.52. Then IHSIALSTFASLIGPFGGFTASGF [F20T], with 3.03; and IHSIALSTFASLIGPFGGFLASGF [F20L], with 2.98; and IHSIALSTFASLIGPFGGFKASGF [F20K], with 2.68. With IHSIALSTFASLIGPFGGFVASGF [F20V] the figure was 3.06. Turning to IHSIALSTFASLIGPFGGFPASGF [F20P], the protein stability index worked out at 3.39.

For the variant IHSIALSTFASLIGPFGGFMASGF [F20M], the protein stability index came out at 2.88. With IHSIALSTFASLIGPFGGFCASGF [F20C] the figure was 4.04.
